Where a chain is given by its changes, count along the chain named.

In assay [1] the target is wildtype feline IL-31 (Feline_IL31_wildtype) (feline). The experiment in a line: indirect ELISA, coated IL-31. On the technique in general: An ELISA detects its analyte on a solid surface through an enzyme-linked reagent.
For assay [2], the target named is feline IL-31 15H05 mutant (Feline_IL31_15H05 mutant) (feline). The experiment in a line: indirect ELISA, coated IL-31.
Assay [3] has as its target canine IL-31 (Canine_IL31) (canine). The experiment in a line: SPR (Biacore), immobilised IL-31, 1:1 fit. A general note: SPR reads the build-up and loss of mass on a sensor chip optically.
Assay [4] addresses wildtype feline IL-31 (Feline_IL31_wildtype) (feline). The experiment in a line: SPR (Biacore), immobilised IL-31, 1:1 fit.
Assay [5] shares this target. The experiment in a line: cell-based or functional assay.
Assay [6] has the same target.
In assay [7] the target is canine IL-31 (Canine_IL31) (canine).
Assay [8] has the same target. The experiment in a line: cell-based or functional assay.

Chain of wildtype feline IL-31 (Feline_IL31_wildtype) (feline) (chain, as listed by the source limits assumed, form in doubt): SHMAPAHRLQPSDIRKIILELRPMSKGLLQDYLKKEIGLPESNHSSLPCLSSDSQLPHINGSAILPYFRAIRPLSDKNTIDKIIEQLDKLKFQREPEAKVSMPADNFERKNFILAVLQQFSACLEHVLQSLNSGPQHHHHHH
Chain of canine IL-31 (Canine_IL31) (canine) (chain, as listed by the source limits assumed, form in doubt): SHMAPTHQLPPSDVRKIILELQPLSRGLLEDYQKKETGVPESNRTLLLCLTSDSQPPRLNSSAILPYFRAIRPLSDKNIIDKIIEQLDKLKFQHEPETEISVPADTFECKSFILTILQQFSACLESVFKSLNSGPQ
Chain of feline IL-31 15H05 mutant (Feline_IL31_15H05 mutant) (feline) (chain, as listed by the source mutant limits assumed, form in doubt): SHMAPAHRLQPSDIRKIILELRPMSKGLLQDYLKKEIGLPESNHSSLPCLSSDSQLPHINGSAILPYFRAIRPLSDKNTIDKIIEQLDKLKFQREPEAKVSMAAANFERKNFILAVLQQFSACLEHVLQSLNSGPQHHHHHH

B1: ZIL69 (antibody, V domains shown)
VH: EVQLVESGGDLVKPAGSLRLSCVASGFTFSSYAMKWVRQAPGKGLQWVATINNDGTRTGYADAVRGRFTISKDNAKNTLYLQMDSLRADDTAVYYCTKGNAESGCTGDHCPPYWGQGTLVTVSS
VL: SSVLTQPPSVSVSLGQTATISCSGESLNKYYAQWFQQKAGQAPVLVIYKDTERPSGIPDRFSGSSAGNTHTLTISGARAEDEADYYCESAVSSETNVFGSGTQLTVLR
With B1, the values for the Binding (ELISA OD) in assay [1] and in assay [2] were 1.48 OD and 0.92 OD, respectively.

B2: Feline 11E12 1.1 (antibody, V domains shown)
VH: QVLLVQSGAEVKKPGASVKIFCKASGYSFTYYDINWLRQAPEQGLEWMGWIFPGDGGTKYNETFKGRLTLTADTSTNTVYMELSSLRSADTAMYYCARGGTSVIRDAMDYWGQGALVTVSS
VL: EIQMTQSPSSLSASPGDRVTITCRASESVDNYGISFMHWYQQKPGKVPKLLIYRASNLESGVPSRFSGSGSGTDFTLTISSLEPEDAATYYCQQSNKDPLTFGQGT
In assay [3], B2 displayed a Kd of 0.764 nM, a koff of 0.000141 s⁻¹ and a kon of 185000 M⁻¹ s⁻¹. In assay [4], this molecule showed a Kd of 22.2 nM, a koff of 0.000444 s⁻¹ and a kon of 20000 M⁻¹ s⁻¹. This molecule showed a potency against feline IL-31 in the feline FCWF assay, against the mouse version in assay [5] of 2 fold.

B3: ZIL9 (antibody, V domains shown)
VH: EVQLVESGGDLVKPPGSLRLSCVASGFTFSSYDMTWVRQAPGKGLQWVADVNSGGTGTAYAVAVKGRFTISRDNAKKTLYLQMNSLRAEDTAVYYCAKLGVRDGLSVWGQGTLVTVSS
VL: SSVLTQPPSVSVSLGQTATISCSGESLNEYYTQWFQQKAGQAPVLVIYRDTERPSGIPDRFSGSSSGNTHTLTISGARAEDEADYYCESAVDTGTLVFGGGTHLAVLR
Consider B3, for which the Binding (ELISA OD) is 1.8 OD in assay [1] and 0.73 OD in assay [2].

B4: ZIL171 (antibody, V domains shown)
VH: EVQLVESGGDLVKPAGSLRLSCVASGFTFRTYVMNWVRQAPGKGLQWVASINGGGSSPTYADAVRGRFTVSRDNAQNSLFLQMNSLRAEDTAIYFCVVSMVGPFDYWGHGTLVTVSS
VL: B1 VL with E25K, N28S, K29Y, A66S, E94D, N96I, S100G, Q103H
In the case of B4, the Binding (ELISA OD) was determined as 1.42 OD in assay [1] and 0.93 OD in assay [2].

B5: mouse anti IL-31 antibody 11E12 (antibody, V domains shown)
VH: QVQLQQSGAELVKPGASVKLSCKASGYTFKYYDINWVRQRPEQGLEWIGWIFPGDGGTKYNETFKGKATLTTDKSSSTAYMQLSRLTSEDSAVYFCARGGTSVIRDAMDYWGQGTSVTVSS
VL: DIVLTQSPASLAVSLGQRATISCRASESVDNYGISFMHWYQQKPGQPPKLLIYRASNLESGIPARFSGSGSRTDFTLTINPVETDDVATYYCQQSNKDPLTFGAGTKLELK
Molecule B5 had a Binding (ELISA OD) in assay [1] of 1.15 OD. Further, the Binding (ELISA OD) in assay [2] stood at 1.33 OD. Besides, in assay [3], the Kd was 0.000763 nM, the koff was determined as 4.8e-07 s⁻¹ and the kon came out at 629000 M⁻¹ s⁻¹. In assay [4], the Kd worked out at 0.738 nM, the koff was determined as 0.000123 s⁻¹ and the kon worked out at 167000 M⁻¹ s⁻¹. Further, in assay [6], the IC50, inhibition of feline IL-31-induced STAT3 phosphorylation, canine DH82 cells worked out at 2.47 µg/mL and the IC50, inhibition of feline IL-31-induced STAT3 phosphorylation, feline FCWF4 cells is 2.01 µg/mL.

B6: mouse anti IL-31 antibody 15H05 (antibody, V domains shown)
VH: QVQLQQSAAELARPGASVKMSCKTSGYTFTSYTIHWIKQRPGQGLEWIGNINPTSGYTENNQRFKDKTTLTVDRSSNTAYLQLHSLTSEDSAVYFCARWGFKYDGEWSFDVWGAGTTVTVSS
VL: DIQMNQSPSSLSASLGDTITVTCRASQGISIWLSWYQQKPGNIPKVLINKASNLHIGVPPRFSGSGSGTHFTLTITSLQPEDIATYYCLQSQTYPLTFGGGTKLEIN
B6 gave a Binding (ELISA OD) in assay [1] of 1.94 OD. For the same molecule, the Binding (ELISA OD) in assay [2] is 0.05 OD. In assay [3], this molecule returned a Kd of 0.00487 nM, a koff of 6.56e-07 s⁻¹ and a kon of 135000 M⁻¹ s⁻¹. Further, in assay [4], the Kd came out at 0.348 nM, the koff was 1.69e-05 s⁻¹ and the kon came out at 48400 M⁻¹ s⁻¹. In assay [7], this molecule displayed an IC50, inhibition of canine IL-31-induced STAT3 phosphorylation, canine DH82 cells of 11.2 µg/mL and an IC50, inhibition of canine IL-31-induced STAT3 phosphorylation, feline FCWF4 cells of 25.7 µg/mL. In assay [6], this molecule returned an IC50, inhibition of feline IL-31-induced STAT3 phosphorylation, canine DH82 cells of 2.7 µg/mL and an IC50, inhibition of feline IL-31-induced STAT3 phosphorylation, feline FCWF4 cells of 4.26 µg/mL.

B7: mouse: feline 15H05 chimera (antibody)
heavy: QVQLQQSAAELARPGASVKMSCKTSGYTFTSYTIHWIKQRPGQGLEWIGNINPTSGYTENNQRFKDKTTLTVDRSSNTAYLQLHSLTSEDSAVYFCARWGFKYDGEWSFDVWGAGTTVTVSSASTTAPSVFPLAPSCGTTSGATVALACLVLGYFPEPVTVSWNSGALTSGVHTFPAVLQASGLYSLSSMVTVPSSRWLSDTFTCNVAHPPSNTKVDKTVRKTDHPPGPKPCDCPKCPPPEAAGAPSIFIFPPKPKDTLSISRTPEVTCLVVDLGPDDSDVQITWFVDNTQVYTAKTSPREEQFNSTYRVVSVLPILHQDWLKGKEFKCKVNSKSLPSPIERTISKAKGQPHEPQVYVLPPAQEELSRNKVSVTCLIKSFHPPDIAVEWEITGQPEPENNYRTTPPQLDSDGTYFVYSKLSVDRSHWQRGNTYTCSVSHEALHSHHTQKSLTQSPGK
light: DIQMNQSPSSLSASLGDTITVTCRASQGISIWLSWYQQKPGNIPKVLINKASNLHIGVPPRFSGSGSGTHFTLTITSLQPEDIATYYCLQSQTYPLTFGGGTKLEINRSDAQPSVFLFQPSLDELHTGSASIVCILNDFYPKEVNVKWKVDGVVQNKGIQESTTEQNSKDSTYSLSSTLTMSSTEYQSHEKFSCEVTHKSLASTLVKSFQRSECQRE
Regarding B7, in assay [3], the Kd is 0.0129 nM, the koff was 1.62e-07 s⁻¹ and the kon was determined as 12600 M⁻¹ s⁻¹. In assay [6], this molecule showed an IC50, inhibition of feline IL-31-induced STAT3 phosphorylation, canine DH82 cells of 5.59 µg/mL and an IC50, inhibition of feline IL-31-induced STAT3 phosphorylation, feline FCWF4 cells of 3.25 µg/mL. In assay [8], the IC50 against canine IL-31 (pSTAT3; cell type not clear) was 28.6 µg/ml. The IC50 against feline IL-31 induced pSTAT3 signaling in feline FCWF4 cells, against mouse: feline 11E12 chimera in assay [5] worked out at 2 fold.

B8: ZIL159 (antibody, V domains shown)
VH: EVQLVESGGDLVKPAGSLRLSCVASGFTFSSYVMTWVRQAPGKGLQWVAGINSEGSRTAYADAVKGRFTISRDNAKNTLYLQIDSLRAEDTAIYYCATGDIVATGTSYWGQGTLVTVSS
VL: SNVLTQPPSVSVSLGQTATISCSGETLNRFYTQWFQQKAGQAPVLVIYKDTERPSGIPDRFSGSSSGNIHTLTISGARAEDEAAYYCKSAVSIDVGVFGGGTHLTVFR
On to B8, for which the Binding (ELISA OD) in assay [1] came to 1.6 OD; in assay [2], 1.31 OD.

B9: ZIL94 (antibody, V domains shown)
VH: EVQLVDSGGDLVKPGGSLRLSCVASGFTFSTYFMSWVRQAPGRGLQWVALISSDGSGTYYADAVKGRFTISRDNAKNTLYLQMNSLRAEDTAMYYCAIFWRAFNDWGQGTLVTVSS
VL: QTVVIQEPSLSVSPGGTVTLTCGLNSGSVSTSNYPGWYQQTRGRTPRTIIYDTGSRPSGVPNRFSGSISGNKAALTITGAQPEDEADYYCSLYTDSDILVFGGGTHLTVLR
For the molecule B9, the Binding (ELISA OD) is 1.67 OD in assay [1] and 1.3 OD in assay [2].

B10: ZIL1 (antibody, V domains shown)
VH: EVQLVESGGDLVKPGGSLRLSCVASGFTFSSYGMSWVRQAPGKGLQWVAHINSGGSSTYYADAVKGRFTISRDNAKNTLYLQMNSLRAEDTAVYYCVEVYTTLAAFWTDNFDYWGQGTLVTVSS
VL: QSVLTQPTSVSGSLGQRVTISCSGSTNNIGILAATWYQQLPGKAPKVLVYSDGNRPSGVPDRFSGSKSGNSATLTITGLQAEDEADYYCQSFDTTLDAYVFGSGTQLTVLR
As for B10, the results for the Binding (ELISA OD) in assay [1] and in assay [2] were 1.89 OD and 0.92 OD, respectively.

B11: mouse: canine 11E12 chimera (antibody)
heavy: QVQLQQSGAELVKPGASVKLSCKASGYTFKYYDINWVRQRPEQGLEWIGWIFPGDGGTKYNETFKGKATLTTDKSSSTAYMQLSRLTSEDSAVYFCARGGTSVIRDAMDYWGQGTSVTVSSASTTAPSVFPLAPSCGSTSGSTVALACLVSGYFPEPVTVSWNSGSLTSGVHTFPSVLQSSGLYSLSSMVTVPSSRWPSETFTCNVAHPASKTKVDKPVPKRENGRVPRPPDCPKCPAPEMLGGPSVFIFPPKPKDTLLIARTPEVTCVVVDLDPEDPEVQISWFVDGKQMQTAKTQPREEQFNGTYRVVSVLPIGHQDWLKGKQFTCKVNNKALPSPIERTISKARGQAHQPSVYVLPPSREELSKNTVSLTCLIKDFFPPDIDVEWQSNGQQEPESKYRTTPPQLDEDGSYFLYSKLSVDKSRWQRGDTFICAVMHEALHNHYTQESLSHSPGK
light: DIVLTQSPASLAVSLGQRATISCRASESVDNYGISFMHWYQQKPGQPPKLLIYRASNLESGIPARFSGSGSRTDFTLTINPVETDDVATYYCQQSNKDPLTFGAGTKLELKRNDAQPAVYLFQPSPDQLHTGSASVVCLLNSFYPKDINVKWKVDGVIQDTGIQESVTEQDKDSTYSLSSTLTMSSTEYLSHELYSCEITHKSLPSTLIKSFQRSEC
B11: in assay [3], the Kd worked out at 0.000826 nM, the koff is 6.55e-07 s⁻¹ and the kon was determined as 793000 M⁻¹ s⁻¹. In assay [4], the equilibrium dissociation constant (Kd) came to 0.248 nM, the koff is 0.000108 s⁻¹ and the kon was 437000 M⁻¹ s⁻¹. In addition, the IC50, inhibition of feline IL-31-induced STAT3 phosphorylation, feline FCWF4 cells in assay [6] turned out to be 1.15 µg/mL.

B12: ZIL154 (antibody, V domains shown)
VH: EVHLVESGGDLVKPWGSLRLSCVASGFTFSDRGMSWVRQSPGKGLQWVAYIRYDGSRTDYADAVEGRFTISRDNAKNTLYLQMNSLRAEDTAVYYCARWDGSSFDYWGQGTLVTVSS
VL: DIVVTQTPLSLSVSPGETASFSCKASQSLLHSDGNTYLDWFRQKPGQSPQRLIYKVSNRDPGVPDRFSGSGSGTDFTLRISGVEADDAGLYYCMQAIHFPLTFGAGTKVELKR
With B12, the Binding (ELISA OD) was determined as 1.62 OD in assay [1] and 1.38 OD in assay [2].

As usually defined, the Kd is the concentration at which binding is half-saturated. Higher therefore signals lower affinity. One may read the koff as a measure of how fast the partners let go of each other. Broadly, the kon is the rate constant with which the complex forms. A higher kon goes with fast association.

The values above are taken from US20190282704A1.
